Experimental data published in PMC8247599 (Genes & Development, 2021).

Molecular target: the molecule itself
Experiment: crystal structure

B1: Khc^855–941 (domain or fragment)
chain: not shown
binding result: binds
